Assay [1] addresses T1, Recombinant mouse CTLA-4/human IgG1 chimera (R&D Systems) (mouse; human, UniProt P09793 36-162, limits assumed).
T1 construct: Bought reagent; also called recombinant mCTLA-4/Fc; recombinant CTLA4 protein; not shown: human IgG1 portion (Fc) of the bought chimera
The experiment in a line: ELISA: mouse CTLA-4/human IgG1 chimera coated at 1 or 5 µg/mL; HEK293 conditioned medium with 9D9-scFv at 130 ng/mL; anti-mouse IgG-HRP, OD 450 nm. The protocol:
(§1) Plasmid encoded anti-CTLA4 scFv bound to recombinant CTLA4 protein. Transfection-derived secreted anti-CTLA4 (scFv) were evaluated for their binding capacity to CTLA-4. Recombinant mouse CTLA-4/human IgG1 chimera (R&D Systems) were immobilized in 96-well plates (1 or 5 μg/mL, or […]) for 18 hr at room temperature. Wells were washed three times with 0.1% Tween in PBS and blocked with 1% BSA in PBS. Conditioned medium from HEK293 cells transfected with 9H10-scFv (168 ng/mL) or 9D9-scFv (130 ng/mL) was added to the wells, and incubated for 2 h at room temperature. Wells were washed three times, and anti-mouse IgG-horseradish peroxidase (Jackson ImmunoResearch, 0.2 μg/mL) were added and incubated for 1.5 hours at room temperature. Wells were again washed three times, developed with HRP Substrate Reagent (R&D Systems) and stopped with Stop Solution, 2N sulfuric acid (R&D Systems). Optical density of each well was measured at 450 nm.
(In general: An ELISA detects its analyte on a solid surface through an enzyme-linked reagent.)

Assay [2] deals with T1, Recombinant mouse CTLA-4/human IgG1 …. The experiment in a line: ELISA: mouse CTLA-4/human IgG1 chimera coated at 1 or 5 µg/mL; HEK293 conditioned medium with 9H10-scFv at 168 ng/mL; anti-mouse IgG-HRP, OD 450 nm. The protocol:
as §1

B1: 9D9-scFv (Igκ-HA-9D9 VLC-Linker-9D9 VHC-Linker-mIgG1 Fc domain, anti-CTLA-4 scFv) (scFv)
scFv: YPYDVPDYAGAQPARSDIVMTQTTLSLPVSLGDQASISCRSSQSIVHSNGNTYLEWYLQKPGQSPKLLIYKVSNRFSGVPDRFSGSGSGTDFTLKISRVEAEDLGVYYCFQGSHVPYTFGGGTKLEIKRADAAPTVSGSGGGSGGGSGGGSEAKLQESGPVLVKPGASVKMSCKASGYTFTDYYMNWVKQSHGKSLEWIGVINPYNGDTSYNQKFKGKATLTVDKSSSTAYMELNSLTSEDSAVYYCARYYGSWFAYWGQGTLITVSTAKTTPPSVYPLAPVDSSGSGGCKPCICTVPEVSSVFIFPPKPKDVLTITLTPKVTCVVVDISKDDPEVQFSWFVDDVEVHTAQTQPREEQFNSTFRSVSELPIMHQDWLNGKEFKCRVNSAAFPAPIEKTISKTKGRPKAPQVYTIPPPKEQMAKDKVSLTCMITDFFPEDITVEWQWNGQPAENYKNTQPIMDTDGSYFVYSKLNVQKSNWEAGNTFTCSVLHEGLHNHHTEKSLSHSPGK
notes: scFv (VL-linker-VH) with an N-terminal HA tag, fused to a mouse IgG1 Fc domain; It was secreted into conditioned medium of transfected HEK293 cells; also called plasmid encoded anti-CTLA4 scFv
Turning to B1, in assay [1], the binding result was “binds”.

B2: 9H10-scFv (Igκ-HA-9H10 VLC-Linker-9H10 VHC-Linker-mIgG1 Fc domain, anti-CTLA-4 scFv) (scFv)
scFv: YPYDVPDYAGAQPARSDIVMTQSPSSLAVSVGEKVTISCKSSQSLLYGSSHYLAWYQQKVGQSPKLLIYWASTRHTGIPDRFIGSGSGTDFTLSLSSVQAEDMADYFCQQYFSTPWTFGAGTRVEIKSGSGGGSGGGSGGGSQVQLLQSESELVKPGASVKLSCKTSGYTFTDYYIHWVKQKPGQGLEWIGLINPNNDGTNYNQKFQGKATLTADKSSSTAYMELNSLTFDDSVIYFCARASSRLRMARTTSDYYAMDYWGQGIQVTVSSVDSSGSGGCKPCICTVPEVSSVFIFPPKPKDVLTITLTPKVTCVVVDISKDDPEVQFSWFVDDVEVHTAQTQPREEQFNSTFRSVSELPIMHQDWLNGKEFKCRVNSAAFPAPIEKTISKTKGRPKAPQVYTIPPPKEQMAKDKVSLTCMITDFFPEDITVEWQWNGQPAENYKNTQPIMDTDGSYFVYSKLNVQKSNWEAGNTFTCSVLHEGLHNHHTEKSLSHSPGK
notes: as for B1
As to B2, the binding result in assay [2] is given as “binds”.

These data come from patent US20220041724A1 (GRAND DECADE DEVELOPMENTS, published 2022).
